According to PMC545490, “Mapping and mutation of the conserved DNA polymerase interaction motif (DPIM) located in the C-terminal domain of fission yeast DNA polymerase δ subunit Cdc27” (BMC Molecular Biology, 2004):

Biological target: T1, LexA-Pol1-278-527 (S. pombe, UniProt P28040 278-527)
T1 construct: Pol1, catalytic subunit of DNA polymerase α, S. pombe, amino acids 278–527; source: yeast two-hybrid fusion (pBTM116, S. cerevisiae CTY10-5d)
T1 sequence (looked up): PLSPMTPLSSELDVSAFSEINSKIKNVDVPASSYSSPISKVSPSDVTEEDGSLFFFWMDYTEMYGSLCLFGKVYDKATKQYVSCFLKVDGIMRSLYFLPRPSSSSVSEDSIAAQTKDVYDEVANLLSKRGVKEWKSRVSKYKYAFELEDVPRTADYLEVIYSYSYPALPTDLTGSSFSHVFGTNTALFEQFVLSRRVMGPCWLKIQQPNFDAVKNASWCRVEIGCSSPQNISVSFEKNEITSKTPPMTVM
Test: two-hybrid; Gal4 AD prey (pACT2) and LexA bait (pBTM116) in S. cerevisiae lexA op-lacZ strain CTY10-5d; β-galactosidase activity in Miller units
Conditions: partners not purified

B1: Gal4-Cdc27-273-352-P7 (domain or fragment, S. pombe, UniProt P30261 273-352, looked up)
chain: TEAKSAAPDEPQEIIKSVSGGKRRGKRKVKKYATTKDEEGFLVTKEEEVWESFSAAANISTGTSNVVRNKPTTVNIATKK
notes: positions worked out from oligonucleotides CDC27-P6F and CDC27-P7F and the printed DEE 309–311; also called Cdc27-P7; source: yeast two-hybrid fusion (pACT2, S. cerevisiae CTY10-5d)
  strength of the interaction, percent of the wild-type value: ~10 % of wild-type
